“And” between values parts separate entries of the source, which are not always exact repeats. Equal entries are not always repeated.
Assay: Tissue distribution of An2-PAPTP and metabolites (liver, spleen, kidneys, heart) after i.v. injection
Format: in vivo, mouse
Conditions: for metabolite in heart, 15 min / metabolite in spleen, 15 min: N = 5; for metabolite in liver, 15 min: n = 5; for metabolite in liver, 30 min: n = 4; for metabolite in liver, 60 min: n = 6; for metabolite in kidneys, 15 min, single animal: found in one animal out of five
Excerpt: The total amount of An2-PAPTP and its metabolites, summarized in Table 3, is comprehensive of all the species having the characteristic psoralenic UV spectrum obtained by the overall extraction procedure (i.e., from organic solvent extraction and basic hydrolysis of the remaining pellet), and represents and underestimation of the real concentration in the tissue (see Section 4.7.3). This is because no recovery yield correction was applied, since it was impossible to identify most of the species extracted, and because PAPTPL extracted after high-pH hydrolysis of the pellet could come either from An2-PAPTP or from metabolites. For quantification in HPLC analysis, all the psoralenic species were assumed to have the same molar extinction coefficient as PAPTPL, an assumption justified by the near-identity observed for all the available psoralen-containing molecules.
(§1) The liver, spleen, kidneys, heart obtained from untreated mice were weighed and homogenized with PBS pH 7.4 (1 vol) with a potter. The pre-established amount of PAPTPL was added into tissue homogenates or blood and, after thorough vortexing, 5 vol of acetone were added and the sample was sonicated for 2 min. Subsequently, 5 vol of ACN containing 0.1% TFA were added and the sample was sonicated for 5 min. The sample was then centrifuged at 12,000× g for 7 min at 4 °C and the supernatant was collected, concentrated with a Hetovac VR-1, and analyzed via HPLC-UV.
as §1, with “Brain and liver” for “The liver, spleen, kidneys, heart”, “analyte” for “PAPTPL”, “homogenates” for “homogenates or blood”, “trifluoracetic acid (TFA)” for “TFA”
To quantify the amount of An2-PAPTP stuck in the tissue, the pellet remaining after the procedure described above was incubated with intermittent Vortexing at 60 °C for 3 h with PBS pH 12.5/ACN 1:1 and then centrifuged at 12,000× g for 7 min. HPLC-UV analysis of the supernatant, measuring PAPTPL hydrolyzed from the tissue, thus indirectly reflects the amount of An2-PAPTPL in the pellet (Scheme 3). Quantification was as described for PAPTPL.
A stock solution of the peptide-PAPTP conjugates was prepared in DMSO. TAT-PAPTP was administered at 8 and 5 μmol/kg bw and An2-PAPTP only at 5 μmol/kg bw. The calculated quantity of drugs was diluted from the stock solution in saline or mouse plasma to a final volume of 200 μL.

[1] = after An2-PAPTP 5 µmoles/kg bw i.v., mean ± SEM
[2] = after An2-PAPTP 5 µmoles/kg bw i.v., liver, mean ± SEM
[3] = after An2-PAPTP 5 µmoles/kg bw i.v., liver, 30 min, mean ± SEM
[4] = after An2-PAPTP i.v., mean ± SEM, N = 4
[5] = after An2-PAPTP i.v., mean ± SEM
[6] = after An2-PAPTP i.v., mean ± SEM, N = 6
[7] = after An2-PAPTP i.v., kidneys, found in one animal out of four

SMILES	metabolite in heart, 15 min [1] [nmol/g fresh tissue]	metabolite in liver, 15 min [2] [% administered dose]	metabolite in liver, 30 min [3] [% administered dose]	metabolite in liver, 60 min [2] [% administered dose]	metabolite in heart, 30 min [4] [% administered dose]	metabolite in heart, 15 min [5] [% administered dose]	metabolite in kidneys, 15 min, single animal (after An2-PAPTP i.v., kidneys)	metabolite in kidneys, 30 min (after An2-PAPTP i.v., kidneys, mean ± SEM, N = 4) [% administered dose]	metabolite in kidneys, 60 min (after An2-PAPTP i.v., kidneys, mean ± SEM, N = 6) [% administered dose]	metabolite in spleen, 30 min [4] [% administered dose]	metabolite in spleen, 15 min [5] [% administered dose]	metabolite in spleen, 60 min [6] [% administered dose]	metabolite in kidneys, 30 min, single animal [7]	metabolite in kidneys, 60 min, single animal (after An2-PAPTP i.v., kidneys, found in one animal out of six) [% administered dose]	metabolite in liver, 15 min (after An2-PAPTP 5 µmoles/kg bw i.v. in mouse plasma, liver, HPLC-UV, mean ± SEM) [nmol/g fresh tissue]	metabolite in spleen, 15 min [1] [nmol/g fresh tissue]	metabolite in liver, 30 min, single animal (after An2-PAPTP i.v., liver, 30 min, found in one animal out of four)
CC[C@H](C)[C@H](NC(=O)Oc1ccc(CCCOc2ccc([P+](CCCc3ccc(OCCCCOc4c5ccoc5cc5oc(=O)ccc45)cc3)(c3ccccc3)c3ccccc3)cc2)cc1)C(=O)N[C@H](C(=O)N[C@@H](Cc1ccccc1)C(=O)O)[C@@H](C)O [PAPTPL-ITF, PAPTPL-isoleucine-threonine-phenylalanine]	0	1.7 ± 1.0	1.2 ± 0.5	3.9 ± 1.0	0.008 ± 0.007	0	0.01 % administered dose	0.12 ± 0.08	0.02 ± 0.01	0.02 ± 0.01	0.13 ± 0.08	0.08 ± 0.01	–	–	–	–	–
CC[C@H](C)[C@H](NC(=O)Oc1ccc(CCCOc2ccc([P+](CCCc3ccc(OCCCCOc4c5ccoc5cc5oc(=O)ccc45)cc3)(c3ccccc3)c3ccccc3)cc2)cc1)C(=O)N[C@H](C(=O)O)[C@@H](C)O [PAPTPL-IT, PAPTPL-isoleucine- threonine]	0	2.8 ± 1.0	2.7 ± 1.8	6.2 ± 1.6	0.01 ± 0.01	0	0.04 % administered dose	–	–	0.07 ± 0.04	0.10 ± 0.04	0.07 ± 0.03	0.05 % administered dose	0.006	–	–	–
CCC(C)C(NC(=O)Oc1ccc(CCCOc2ccc([P+](CCCc3ccc(OCCCCOc4c5ccoc5cc5oc(=O)ccc45)cc3)(c3ccccc3)c3ccccc3)cc2)cc1)C(=O)O.O=C([O-])C(F)(F)F (stereo not drawn) [PAPTPL-I, (4-(3-(4-(((1-carboxy-2-methylbutyl)carbamoyl)oxy)phenyl)propoxy)phenyl) (3-(4-(4-((7-oxo-7H-furo[3,2-g]chromen-4-yl)oxy)butoxy)phenyl)propyl)diphenylphosphonium 2,2,2-trifluoroacetate]	0	0.4 ± 0.2	–	–	–	0	0.32 nmol/g fresh tissue and 0.02 % administered dose	–	–	–	0.04 ± 0.02	–	0.32 nmol/g fresh tissue and 0.03 % administered dose	–	0.5 ± 0.3	0.7 ± 0.3	0.2 nmol/g fresh tissue and 0.03 % administered dose
